Assay results published in publication PMC3841738 (Genes & Development, 2013).

Biological target: the molecule itself
Assay: SAXS

B1: NtrC1 ATPase domain (Aquifex aeolicus) (domain or fragment)
chain: LRKENELLRREKDLKEEEYVFESPKMKEILEKIKKISCAECPVLITGESGVGKEVVARLIHKLSDRSKEPFVALNVASIPRDIFEAELFGYEKGAFTGAVSSKEGFFELADGGTLFLDEIGELSLEAQAKLLRVIESGKFYRLGGRKEIEVNVRILAATNRNIKELVKEGKFREDLYYRLGVIEIEIPPLRERKEDIIPLANHFLKKFSRKYAKEVEGFTKSAQELLLSYPWYGNVRELKNVIERAVLFSEGKFIDRGELSCLVNSK
  stoichiometry N: 7
